Results taken from patent US20170176432A1 (OSAKA UNIVERSITY, published 2017).
Values belong to the binder of their own block, whether it stands above or below them.

How the values were obtained:
human thyroglobulin (TG) [1] = molecular target: T1, human thyroglobulin (TG) (human, UniProt P01266 20-2768); assay: flow cytometry of surface TG (anti-histidine antibody) on 293T; HLA-DRB1*01:03
T1 construct: whole, on cells; the tag is not described

[2] = molecular target: T2, human β2-glycoprotein I (β2-GPI) (human, UniProt P02749 20-345); assay: flow cytometry of surface β2-GPI on 293T; HLA-DRB1*01:03
T2 construct: whole, on cells
T2 sequence (looked up): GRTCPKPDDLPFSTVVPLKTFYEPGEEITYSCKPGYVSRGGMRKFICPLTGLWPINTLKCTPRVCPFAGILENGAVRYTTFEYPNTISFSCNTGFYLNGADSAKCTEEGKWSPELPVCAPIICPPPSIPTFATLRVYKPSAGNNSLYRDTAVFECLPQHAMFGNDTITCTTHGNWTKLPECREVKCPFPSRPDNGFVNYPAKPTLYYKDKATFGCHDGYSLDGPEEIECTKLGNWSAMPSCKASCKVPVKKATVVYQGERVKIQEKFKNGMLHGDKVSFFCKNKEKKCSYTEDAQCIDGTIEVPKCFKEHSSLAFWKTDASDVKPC

[3] = molecular target: T2, human β2-glycoprotein I (β2-GPI); assay: flow cytometry of surface β2-GPI on 293T; HLA-DRB1*13:03
[4] = molecular target: T2, human β2-glycoprotein I (β2-GPI); assay: flow cytometry of surface β2-GPI on 293T; HLA-DRB1*04:03
[5] = molecular target: T2, human β2-glycoprotein I (β2-GPI); assay: flow cytometry of surface β2-GPI on 293T; HLA-DRB1*04:02
[6] = molecular target: T2, human β2-glycoprotein I (β2-GPI); assay: flow cytometry of surface β2-GPI on 293T; HLA-DRB1*04:06
[7] = molecular target: T2, human β2-glycoprotein I (β2-GPI); assay: flow cytometry of surface β2-GPI on 293T; HLA-DRB1*08:01
[8] = molecular target: T2, human β2-glycoprotein I (β2-GPI); assay: flow cytometry of surface β2-GPI on 293T cells (β2-GPI+HLA-DR4)
Description: The HLA-DRA*01:01 vector as an α-chain expression vector, the HLA-DRB1*04:04 vector as a β-chain expression vector, the β2-GPI vector, and the GFP vector were introduced to 293T cells, and the 293T cells were cultured. The cultured cells were reacted with an anti-β2-GPI antibody or an anti-cardiolipin antibody (aCL), and further reacted with the APC-labeled anti-human IgG antibody. Then, GFP-positive cells were subjected to flow cytometry analysis in the same manner as in Example 1A. As Control 1, the analysis was performed in the same manner, except that only the β2-GPI expression vector was introduced. As Control 2, the analysis was performed in the same manner, except that only the GFP vector was introduced. [0219] anti-β2-GPI antibody: polyclonal antibody, available from Atlas antibodies [0220] human anti-cardiolipin antibody: Clone EY2C9, supplied by Professor Atsumi, School of Medicine in Hokkaido University. Reference was made to the following paper: Ichikawa, K., M. A. Khamashta, T. Koike, E. Matsuura, and G. R. V. Hughes. 1994. P2-Glycoprotein I reactivity of monoclonal anticardiolipin antibodies from patients with the antiphospholipid syndrome. Arthritis Rheum. 37: 1453.

[9] = molecular target: T2, human β2-glycoprotein I (β2-GPI); assay: flow cytometry of surface β2-GPI on 293T; HLA-DRB1*08:03
[10] = molecular target: T2, human β2-glycoprotein I (β2-GPI); assay: flow cytometry of surface β2-GPI on 293T; HLA-DRB1*10:01
[11] = molecular target: T2, human β2-glycoprotein I (β2-GPI); assay: flow cytometry of surface β2-GPI on 293T; HLA-DRB1*14:01
[12] = molecular target: T2, human β2-glycoprotein I (β2-GPI); assay: flow cytometry of surface β2-GPI on 293T; HLA-DRB1*11:01
[13] = molecular target: T2, human β2-glycoprotein I (β2-GPI); assay: flow cytometry of surface β2-GPI on 293T; HLA-DRB1*13:02
[14] = molecular target: T2, human β2-glycoprotein I (β2-GPI); assay: flow cytometry of surface β2-GPI on 293T; HLA-DRB1*04:01
[15] = molecular target: T2, human β2-glycoprotein I (β2-GPI); assay: flow cytometry of surface β2-GPI on 293T; HLA-DRB1*12:01
[16] = molecular target: T2, human β2-glycoprotein I (β2-GPI); assay: flow cytometry of surface β2-GPI on 293T; HLA-DRB1*03:01
[17] = molecular target: T2, human β2-glycoprotein I (β2-GPI); assay: flow cytometry of surface β2-GPI on 293T; HLA-DRB1*01:01
[18] = molecular target: T2, human β2-glycoprotein I (β2-GPI); assay: flow cytometry of surface β2-GPI on 293T; HLA-DRB1*07:01
[19] = molecular target: T2, human β2-glycoprotein I (β2-GPI); assay: flow cytometry of surface β2-GPI on 293T; HLA-DRB1*04:05
[20] = molecular target: T2, human β2-glycoprotein I (β2-GPI); assay: flow cytometry of surface β2-GPI on 293T; HLA-DRB1*13:01
[21] = molecular target: T2, human β2-glycoprotein I (β2-GPI); assay: flow cytometry of surface β2-GPI on 293T; HLA-DRB1*09:01
[22] = molecular target: T2, human β2-glycoprotein I (β2-GPI); assay: flow cytometry of surface β2-GPI on 293T; HLA-DRB1*14:03
human thyroglobulin (TG) [23] = molecular target: T1, human thyroglobulin (TG); assay: flow cytometry of surface TG (anti-histidine antibody) on 293T; HLA-DRB1*14:03
[24] = molecular target: T2, human β2-glycoprotein I (β2-GPI); assay: flow cytometry of surface β2-GPI on 293T; HLA-DRB1*14:02

T1 sequence (P01266 20-2768): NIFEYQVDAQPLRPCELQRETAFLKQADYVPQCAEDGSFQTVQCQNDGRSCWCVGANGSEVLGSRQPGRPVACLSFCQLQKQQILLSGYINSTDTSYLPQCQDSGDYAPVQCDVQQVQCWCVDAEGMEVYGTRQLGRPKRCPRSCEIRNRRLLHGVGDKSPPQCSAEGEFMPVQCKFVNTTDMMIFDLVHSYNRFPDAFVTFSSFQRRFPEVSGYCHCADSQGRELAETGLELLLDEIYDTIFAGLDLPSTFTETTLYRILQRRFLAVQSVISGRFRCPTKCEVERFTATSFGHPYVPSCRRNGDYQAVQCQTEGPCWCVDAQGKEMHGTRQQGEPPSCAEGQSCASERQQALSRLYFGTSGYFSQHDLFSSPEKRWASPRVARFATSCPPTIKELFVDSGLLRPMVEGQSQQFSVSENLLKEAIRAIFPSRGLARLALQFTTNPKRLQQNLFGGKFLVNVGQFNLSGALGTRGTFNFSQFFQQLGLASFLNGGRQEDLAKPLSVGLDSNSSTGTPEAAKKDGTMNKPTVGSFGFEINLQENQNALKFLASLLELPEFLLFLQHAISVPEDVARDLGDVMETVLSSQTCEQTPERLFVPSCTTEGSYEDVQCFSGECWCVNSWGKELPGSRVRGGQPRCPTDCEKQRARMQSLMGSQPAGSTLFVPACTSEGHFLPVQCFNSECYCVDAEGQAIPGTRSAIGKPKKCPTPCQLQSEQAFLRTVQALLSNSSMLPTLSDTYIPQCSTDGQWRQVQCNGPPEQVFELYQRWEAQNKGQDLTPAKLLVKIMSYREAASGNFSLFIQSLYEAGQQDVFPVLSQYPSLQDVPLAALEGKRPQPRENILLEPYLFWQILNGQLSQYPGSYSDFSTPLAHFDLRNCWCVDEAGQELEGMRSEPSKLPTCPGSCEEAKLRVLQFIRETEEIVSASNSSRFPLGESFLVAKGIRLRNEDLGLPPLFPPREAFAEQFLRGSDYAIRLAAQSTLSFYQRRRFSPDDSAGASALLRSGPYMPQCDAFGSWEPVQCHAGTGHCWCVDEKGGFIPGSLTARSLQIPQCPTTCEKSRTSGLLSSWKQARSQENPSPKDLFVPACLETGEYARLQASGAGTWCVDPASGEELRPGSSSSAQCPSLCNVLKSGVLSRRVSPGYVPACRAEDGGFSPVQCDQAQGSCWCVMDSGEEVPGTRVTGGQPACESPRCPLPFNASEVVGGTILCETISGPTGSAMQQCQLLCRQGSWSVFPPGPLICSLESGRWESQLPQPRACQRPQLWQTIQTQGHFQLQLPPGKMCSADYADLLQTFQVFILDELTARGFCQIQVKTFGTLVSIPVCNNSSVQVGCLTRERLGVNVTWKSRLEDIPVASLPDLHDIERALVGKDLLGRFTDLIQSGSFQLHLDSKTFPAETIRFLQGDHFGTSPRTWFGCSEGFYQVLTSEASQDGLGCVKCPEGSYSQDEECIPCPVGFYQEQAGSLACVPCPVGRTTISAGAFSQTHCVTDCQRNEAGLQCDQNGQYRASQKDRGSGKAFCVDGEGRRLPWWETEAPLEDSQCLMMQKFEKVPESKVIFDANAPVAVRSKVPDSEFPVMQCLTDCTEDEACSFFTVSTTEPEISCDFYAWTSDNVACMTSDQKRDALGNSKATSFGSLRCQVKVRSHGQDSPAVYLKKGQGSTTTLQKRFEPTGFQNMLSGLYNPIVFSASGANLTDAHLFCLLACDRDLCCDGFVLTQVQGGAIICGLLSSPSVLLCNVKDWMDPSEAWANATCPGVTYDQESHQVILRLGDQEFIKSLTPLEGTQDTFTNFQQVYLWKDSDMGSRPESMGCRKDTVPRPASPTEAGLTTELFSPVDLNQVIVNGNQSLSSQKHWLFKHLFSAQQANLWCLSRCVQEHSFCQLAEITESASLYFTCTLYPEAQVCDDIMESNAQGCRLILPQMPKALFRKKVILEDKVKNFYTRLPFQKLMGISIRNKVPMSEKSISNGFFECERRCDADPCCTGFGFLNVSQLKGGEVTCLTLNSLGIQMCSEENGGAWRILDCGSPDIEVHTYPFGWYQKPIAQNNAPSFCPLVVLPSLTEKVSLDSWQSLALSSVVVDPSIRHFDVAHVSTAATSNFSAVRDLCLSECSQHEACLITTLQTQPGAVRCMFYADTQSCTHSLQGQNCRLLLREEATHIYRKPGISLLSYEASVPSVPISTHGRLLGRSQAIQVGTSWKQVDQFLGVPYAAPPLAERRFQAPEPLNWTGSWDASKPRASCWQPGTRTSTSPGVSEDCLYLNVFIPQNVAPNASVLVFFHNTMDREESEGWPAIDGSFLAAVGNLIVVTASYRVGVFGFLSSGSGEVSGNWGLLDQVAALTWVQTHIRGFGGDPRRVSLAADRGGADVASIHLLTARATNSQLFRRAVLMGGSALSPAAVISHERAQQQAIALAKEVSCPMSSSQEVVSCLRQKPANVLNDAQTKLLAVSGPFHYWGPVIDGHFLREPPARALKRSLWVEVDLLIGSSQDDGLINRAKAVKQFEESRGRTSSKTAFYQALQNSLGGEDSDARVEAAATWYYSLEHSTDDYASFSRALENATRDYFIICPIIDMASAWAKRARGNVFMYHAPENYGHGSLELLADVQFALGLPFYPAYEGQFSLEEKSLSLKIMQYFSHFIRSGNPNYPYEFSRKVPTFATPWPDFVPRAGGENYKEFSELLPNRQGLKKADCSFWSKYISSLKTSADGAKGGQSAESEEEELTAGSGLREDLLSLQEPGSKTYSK

B1: HLA-DR (HLA-DRA*01:01/HLA-DRB1*01:03) (other, human)
MHC II alpha: not shown
MHC II beta: not shown
notes: whole, on cells
binding result (human thyroglobulin (TG) [1]): binds | binding result [2]: binds

B2: HLA-DR (HLA-DRA*01:01/HLA-DRB1*13:03) (other, human)
MHC II alpha: not shown
MHC II beta: not shown
notes: whole, on cells
binding result [3]: binds

B3: HLA-DR (HLA-DRA*01:01/HLA-DRB1*04:03) (other, human)
MHC II alpha: not shown
MHC II beta: not shown
notes: whole, on cells
binding result [4]: binds

B4: HLA-DR (HLA-DRA*01:01/HLA-DRB1*04:02) (other, human)
MHC II alpha: not shown
MHC II beta: not shown
notes: whole, on cells
binding result [5]: binds

B5: HLA-DR (HLA-DRA*01:01/HLA-DRB1*04:06) (other, human)
MHC II alpha: not shown
MHC II beta: not shown
notes: whole, on cells
binding result [6]: binds

B6: HLA-DR (HLA-DRA*01:01/HLA-DRB1*08:01) (other, human)
MHC II alpha: not shown
MHC II beta: not shown
notes: whole, on cells
binding result [7]: binds

B7: HLA-DR (HLA-DRA*01:01/HLA-DRB1*04:04) (other, human)
MHC II alpha: not shown
MHC II beta: not shown
notes: whole, on cells; also called HLA-DR4; HLA-DR0404
binding result [8]: binds

B8: HLA-DR (HLA-DRA*01:01/HLA-DRB1*08:03) (other, human)
MHC II alpha: not shown
MHC II beta: not shown
notes: whole, on cells
binding result [9]: binds

B9: HLA-DR (HLA-DRA*01:01/HLA-DRB1*10:01) (other, human)
MHC II alpha: not shown
MHC II beta: not shown
notes: whole, on cells
binding result [10]: binds

Results, then the binder that gave them:

binding result [11]: binds
B10: HLA-DR (HLA-DRA*01:01/HLA-DRB1*14:01) (other, human)
MHC II alpha: not shown
MHC II beta: not shown
notes: whole, on cells

binding result [12]: binds
B11: HLA-DR (HLA-DRA*01:01/HLA-DRB1*11:01) (other, human)
MHC II alpha: not shown
MHC II beta: not shown
notes: whole, on cells

binding result [13]: binds
B12: HLA-DR (HLA-DRA*01:01/HLA-DRB1*13:02) (other, human)
MHC II alpha: not shown
MHC II beta: not shown
notes: whole, on cells

binding result [14]: binds
B13: HLA-DR (HLA-DRA*01:01/HLA-DRB1*04:01) (other, human)
MHC II alpha: not shown
MHC II beta: not shown
notes: whole, on cells

binding result [15]: binds
B14: HLA-DR (HLA-DRA*01:01/HLA-DRB1*12:01) (other, human)
MHC II alpha: not shown
MHC II beta: not shown
notes: whole, on cells

binding result [16]: binds
B15: HLA-DR (HLA-DRA*01:01/HLA-DRB1*03:01) (other, human)
MHC II alpha: not shown
MHC II beta: not shown
notes: whole, on cells; also called HLA-DR3

binding result [17]: binds
B16: HLA-DR (HLA-DRA*01:01/HLA-DRB1*01:01) (other, human)
MHC II alpha: not shown
MHC II beta: not shown
notes: whole, on cells; also called HLA-DR1; HLA-DR0101

binding result [18]: binds
B17: HLA-DR (HLA-DRA*01:01/HLA-DRB1*07:01) (other, human)
MHC II alpha: not shown
MHC II beta: not shown
notes: whole, on cells; also called HLA-DR7; APS susceptible HLA-DR7

binding result [19]: binds
B18: HLA-DR (HLA-DRA*01:01/HLA-DRB1*04:05) (other, human)
MHC II alpha: not shown
MHC II beta: not shown
notes: whole, on cells

binding result [20]: binds
B19: HLA-DR (HLA-DRA*01:01/HLA-DRB1*13:01) (other, human)
MHC II alpha: not shown
MHC II beta: not shown
notes: whole, on cells

binding result [21]: binds
B20: HLA-DR (HLA-DRA*01:01/HLA-DRB1*09:01) (other, human)
MHC II alpha: not shown
MHC II beta: not shown
notes: whole, on cells

binding result [22]: binds | binding result (human thyroglobulin (TG) [23]): binds
B21: HLA-DR (HLA-DRA*01:01/HLA-DRB1*14:03) (other, human)
MHC II alpha: not shown
MHC II beta: not shown
notes: whole, on cells

binding result [24]: binds
B22: HLA-DR (HLA-DRA*01:01/HLA-DRB1*14:02) (other, human)
MHC II alpha: not shown
MHC II beta: not shown
notes: whole, on cells
